For 6 molecules, EC50 results are on record in US20230049752A1 (University of California, published 2023).

To fix the notation:
T1: Claudin-9 (CLDN9) (human, UniProt O95484 1-217)
T1 construct: whole, on cells; also called CLDN9-GFP; CLDN9-mGFP
T1 sequence (looked up): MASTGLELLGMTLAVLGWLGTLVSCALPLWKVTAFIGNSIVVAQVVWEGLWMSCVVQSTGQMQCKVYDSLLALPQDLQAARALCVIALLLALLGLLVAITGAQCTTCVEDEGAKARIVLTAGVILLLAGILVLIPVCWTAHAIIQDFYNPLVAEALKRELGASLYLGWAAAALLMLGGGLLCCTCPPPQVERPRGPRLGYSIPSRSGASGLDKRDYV

T2: mouse Claudin-6 (CLDN6) (mouse, UniProt Q9Z262 1-219)
T2 construct: whole, on cells; GFP fusion on engineered HEK293T cells; also called Mouse CLDN6; murine CLDN6
T2 sequence (looked up): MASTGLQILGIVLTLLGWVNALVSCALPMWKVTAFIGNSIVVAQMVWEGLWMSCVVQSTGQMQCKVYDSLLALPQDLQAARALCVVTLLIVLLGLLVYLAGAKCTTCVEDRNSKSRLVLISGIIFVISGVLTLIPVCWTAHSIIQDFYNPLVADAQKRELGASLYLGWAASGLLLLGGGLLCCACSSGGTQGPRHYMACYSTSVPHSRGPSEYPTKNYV

T3: Claudin-4 (CLDN4) (human, UniProt O14493 1-209)
T3 construct: whole, on cells; also called CLDN4-GFP; CLDN4-mGFP
T3 sequence (looked up): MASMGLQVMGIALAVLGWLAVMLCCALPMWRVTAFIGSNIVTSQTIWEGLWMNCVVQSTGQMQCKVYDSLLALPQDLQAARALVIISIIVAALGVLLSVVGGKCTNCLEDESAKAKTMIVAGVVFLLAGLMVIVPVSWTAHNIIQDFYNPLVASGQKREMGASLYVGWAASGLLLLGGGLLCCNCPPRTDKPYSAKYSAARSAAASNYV

B1: AB11 (antibody, V domains shown)
VH: DVQLVESGGGLVQPRGSRKLSCAASGFTFSSFGMHWVRQAPEKGLEWVAYISSDSRTIYYADTVKGRFTISRDNPTNTLFLQMTSLRSEDTAMYYCARDYGRTYEAYWGQGTLVTVSA
VL: DIVLTQSPASLAVSLGQRATISCRASKSVSTSGYSYIHWYQQKPGQPPKLLIYLASNLESGVPARFSGSGSGTDFTLNIHPVEEEDAATYYCQHSRELPLTFGAGTKLELK
notes: full-length IgG (ExpiCHO)
B2: AB15 (antibody, V domains shown)
VH: B1 VH
VL: NIMMTQSPSSLAVSAGEKVTMSCKSSQSVLFSSNQKNYLAWYQQKPGQSPRLLIYWASTRESGVPDRFTGSGSGTDFTLTISNVQAEDLAVYYCHQYLSSRTFGAGTKLELK
notes: full-length IgG (ExpiCHO)
B3: AB4 (antibody, V domains shown)
VH: QVQLQQSGAELARPGASVKMSCKASGYTFTSYTMHWIKQRPGQGQEWIGYINPSSTYTHYIKKFKDKATLTADKSSSTAYMQLRSLTSEDSAVYYCSRGELGGFAYWGQGTLVTVSA
VL: DVVMTQTPLSLPVSLGDQASISCRSSQSLVHSDGNTYLNWYLQKPGQSPKLLIYKVSNRFSGVPDRFSGSGSGTDFTLKIRRVEAEDLGVYFCSQSTHVPYTFGGGTKLEIK
notes: full-length IgG (ExpiCHO)
B4: AB12 (antibody, V domains shown)
VH: EVKLMESGGDLVKPGGSLKLSCAASGFTFSSYAMSWVRQTPEKRLEWVASIRSGGTTYYPDSVKGRFTISRDNARNILYLRMSSLRSEDTAIYYCAKVGGNPYPMDYWGQGTSVTVSS
VL: DIQMIQSPSSMFASLGDRVSLSCRASQDIGGNLDWYQQKPGGTIKLLIYSTSNLNSGVPSRFSGSGSGSDYSLTITSLESEDFADYYCLQRNAYPLTFGAGTKLELK
notes: full-length IgG (ExpiCHO)
B5: AB5 (antibody, V domains shown)
VH: EVQLQQSGPELVKPGASVKMSCKASGYIFTHYIMHWVKQKPGQGLEWIGCINPYNDGTKYNEKFKGKATLTSDKSSSTAYMELSSLTSEDSAVYYCARYYGYPYYSMDYWGQGTSVTVSS
VL: DVLMTQTPLSLPVSLGDQPSISCRSSQSIVHSNGNTYLDWYLQKPGQSPKLLIYKVSNRFSGVPDRFSGSGSGTDFTLKISRVEAEDLGVYYCFQGSHVPFTFGSGTRLEIK
notes: full-length IgG (ExpiCHO)
B6: AB6 (antibody, V domains shown)
VH: DVQLQESGPGLVKSSQSLSLTCSVTGYSITSGYYWKWIRQFPGNKLEWMGYISYDGGINYNPSLKNRISITRDTSKNQFFLKLNSVTTEDTAKYYCARFGKGAMDYWGQGTSVTVSS
VL: AIVMFQSPSSLVVSAGEKVTMSCKSSQSLLNSRTRKNYLAWYQQKPGQSPKLLIYWASTRESGVPDRFTGSGSGTDFTLTISSVQAEDLAVYYCKQSYYLYTFGGGTKLEIK
notes: full-length IgG (ExpiCHO)

The target in one experiment is human Claudin-6 (CLDN6) (human) (UniProt P56747). The experiment is described as follows: FACS titration of labelled mAb on ARK2 cells (endogenous CLDN6+).
For the molecule B1, the EC50 came out at 0.363 µM.

As for B2, the 50% effective concentration (EC50) amounted to 5 µM.

Molecule B3 came in with an EC50 of 0.048 µM.

With B4, the half-maximal effective concentration (EC50) came out at 1.3 µM.

With B5, the EC50 was 0.008 µM.

With B6, the EC50 came to 0.765 µM.

A further experiment deals with T1, Claudin-9 (CLDN9). Nature of the experiment: FACS titration of labelled mAb on HEK293T CLDN9-mGFP cells. The method, then: (§1) CLDN6 antibodies were tested from 0.32 nM to 1000 nM (serial dilution 1:5, 6 points) in a 50 μl volume with 150,000 cells system.
(§2) CLDN6-expressing cells were used in FACS assays to determine the CLDN6 antibody's ability to bind to CLDN6 on the surface of cells and to cross-react with other CLDN family members. HEK293 T cells engineered to express human CLDN6 fused to GFP, mouse CLDN6 fused to GFP, CLDN9-GFP, CLDN4-GFP, or CLDN3-GFP, or GFP alone (without CLDN6) were used as artificial models of CLDN6 expression.
(§3) For each type of cell tested and for each mAb, cells were detached from the surface of the culture flasks by EDTA (instead of trypsin) in order to protect the cell surface proteins. The detached cells were then incubated with Alexa Fluor®-labeled CLDN6 mAbs for 30 min in the dark on ice at a pre-determined concentration. […] After washing, the cells were read by a BD Accuri™ Flow Cytometer C6 to detect antibody-antigen protein binding in channel FL4H. Each antibody was tested at varied concentrations to establish a dose-fluorescence curve. […] Cross-reactivity data were obtained using a similar methodology, but with cells having a different expression profile for CLDN6, CLDN3, CLDN4 and CLDN9.
For the molecule B3, the EC50 was 1.86 µM.

As for B4, the concentration for a half-maximal effect (EC50) was 2.47 µM.

B5 registered an EC50 of 0.025 µM.

As for B6, the EC50 amounted to 2.77 µM.

The next experiment deals with human Claudin-6 (CLDN6) (human) (UniProt P56747). Nature of the experiment: FACS titration of labelled mAb on OVCA429 cells (endogenous CLDN6+).
For B1, the EC50 turned out to be 0.835 µM.

Turning to B2, the EC50 turned out to be 5 µM.

The molecule B3 gave a 50% effective concentration (EC50) of 0.168 µM.

For B4, the EC50 came out at 2.29 µM.

Take B5: the concentration for a half-maximal effect (EC50) is 0.005 µM.

B6 came in with a 50% effective concentration (EC50) of 0.394 µM.

The next experiment concerns the target CLDN3/4 (endogenous on LS513 or MCF7 cells). The experiment is described as follows: FACS titration of labelled mAb on LS513 cells (endogenous CLDN3/4+).
For the molecule B1, the 50% effective concentration (EC50) is 0.493 µM.

For B2, the EC50 amounted to 5 µM.

Turning to B3, the EC50 is 0.73 µM.

B4 gave a concentration for a half-maximal effect (EC50) of 2.27 µM.

In the case of B5, the concentration giving a half-maximal response (EC50) is 0.781 µM.

The molecule B6 yielded an EC50 of 0.133 µM.

The target is the same in the next experiment. Nature of the experiment: FACS titration of labelled mAb on MCF7 cells (endogenous CLDN3/4+).
B1 gave an EC50 of 0.427 µM.

As for B2, the half-maximal effective concentration (EC50) amounted to 5 µM.

As to B3, the EC50 was found to be 0.653 µM.

In turn, B4 came in with a concentration for a half-maximal effect (EC50) of 5 µM.

Regarding B5, the 50% effective concentration (EC50) worked out at 1.49 µM.

B6 had an EC50 of 1.14 µM.

Another experiment has as its target human Claudin-6 (CLDN6) (human) (UniProt P56747). The experiment is described as follows: FACS titration of labelled mAb on HEK293T-CLDN6-mGFP cells.
With B1, the EC50 came out at 1.7 µM.

In the case of B2, the EC50 came to 5 µM.

In turn, B3 gave a half-maximal effective concentration (EC50) of 0.017 µM.

Regarding B4, the EC50 amounted to 5 µM.

As to B5, the EC50 worked out at 0.01 µM.

The molecule B6 had an EC50 of 1.43 µM.

The next experiment deals with T2, mouse Claudin-6 (CLDN6). The experiment is described as follows: FACS titration of labelled mAb on HEK293T mouse CLDN6-mGFP cells. Here is the method: as §1, §2, §3
The molecule B1 showed an EC50 of 2.38 µM.

B2: the 50% effective concentration (EC50) is ≥ 5 µM.

For B3, the EC50 was ≥ 5 µM.

For the molecule B5, the EC50 was found to be 0.011 µM.

Take B6: a half-maximal response (EC50) required 2.22 µM.

In another experiment the target is T3, Claudin-4 (CLDN4). Nature of the experiment: FACS titration of labelled mAb on HEK293T CLDN4-mGFP cells. The method, then:
as §1, §2, §3
Take B1: it took 2.24 µM to reach a half-maximal effect (EC50).

As for B2, the EC50 is ≥ 5 µM.

B4 gave a 50% effective concentration (EC50) of 2.09 µM.

Molecule B6 had an EC50 of 0.026 µM.
